The text below walks through data of US20250388640A1 (SYNTHEKINE, published 2025).

In test [1] the target is T1, hIL-12 receptor signaling complex (hIL-12Rβ1 and hIL-12Rβ2) (human, UniProt P42701 24-662; Q99665 24-862). The test is described as follows: cell-based or functional assay.
For test [2], the target named is T1, hIL-12 receptor signaling complex …. The test is described as follows: cell-based or functional assay. This is another data set of the same source.

T1 sequence (Q99665 24-862, chain 2 of 2, other chains not shown): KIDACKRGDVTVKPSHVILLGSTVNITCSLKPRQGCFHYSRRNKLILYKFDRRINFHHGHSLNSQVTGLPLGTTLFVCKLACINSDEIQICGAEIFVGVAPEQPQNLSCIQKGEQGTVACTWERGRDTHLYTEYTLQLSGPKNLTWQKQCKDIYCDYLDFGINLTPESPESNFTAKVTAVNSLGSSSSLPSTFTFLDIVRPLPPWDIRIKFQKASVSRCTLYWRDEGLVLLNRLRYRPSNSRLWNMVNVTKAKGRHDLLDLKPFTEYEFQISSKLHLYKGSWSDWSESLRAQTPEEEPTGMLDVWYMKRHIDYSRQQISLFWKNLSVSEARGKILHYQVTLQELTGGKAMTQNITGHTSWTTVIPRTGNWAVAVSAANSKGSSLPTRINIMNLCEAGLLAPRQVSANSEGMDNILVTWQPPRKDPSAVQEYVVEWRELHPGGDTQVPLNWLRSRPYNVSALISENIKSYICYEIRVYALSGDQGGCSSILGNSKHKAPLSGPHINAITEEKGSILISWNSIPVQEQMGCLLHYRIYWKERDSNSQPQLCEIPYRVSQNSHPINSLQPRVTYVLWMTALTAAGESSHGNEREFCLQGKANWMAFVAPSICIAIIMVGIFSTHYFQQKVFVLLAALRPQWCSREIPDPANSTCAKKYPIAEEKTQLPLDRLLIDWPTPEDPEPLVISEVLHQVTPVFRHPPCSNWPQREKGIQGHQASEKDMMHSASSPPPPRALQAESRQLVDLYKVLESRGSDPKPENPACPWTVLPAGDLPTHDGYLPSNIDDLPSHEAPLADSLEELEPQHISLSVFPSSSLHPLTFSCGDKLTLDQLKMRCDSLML

B1: human IL12 mutein, hIL-12p40 E81N, F82A with hIL-12p35-8X His (ligand)
chain 1: IWELKKDVYVVELDWYPDAPGEMVVLTCDTPEEDGITWTLDQSSEVLGSGKTLTIQVKNAGDAGQYTCHKGGEVLSHSLLLLHKKEDGIWSTDILKDQKEPKNKTFLRCEAKNYSGRFTCWWLTTISTDLTFSVKSSRGSSDPQGVTCGAATLSAERVRGDNKEYEYSVECQEDSACPAAEESLPIEVMVDAVHKLKYENYTSSFFIRDIIKPDPPKNLQLKPLKNSRQVEVSWEYPDTWSTPHSYFSLTFCVQVQGKSKREKKDRVFTDKTSATVICRKNASISVRAQDRYYSSSWSEWASVPCS
chain 2: RNLPVATPDPGMFPCLHHSQNLLRAVSNMLQKARQTLEFYPCTSEEIDHEDITKDKTSTVEACLPLELTKNESCLNSRETSFITNGSCLASRKTSFMMALCLSSIYEDLKMYQVEFKTMNAKLLMDPKRQIFLDQNMLAVIDELMQALNFNSETVPQKSSLEEPDFYKTKIKLCILLHAFRIRAVTIDRVMSYLNASGSHHHHHHHH
Regarding B1, in test [1], the “IFNy [gMFI] EC50, CD8+ T Cells” value is 0.43 nM; the “IFNy [gMFI] EC50, CD56hi NK Cells” value amounted to 0.6 nM; the “IFNy [gMFI] Emax, CD8+ T Cells” value was 11400 gMFI; the “IFNy [gMFI] Emax, CD56hi NK Cells” value was found to be 165000 gMFI. Further, in test [2], the “IFNy [%+] EC50, CD8+ T Cells” value amounted to 0.195 nM; the “IFNy [%+] EC50, CD56hi NK Cells” value was found to be 0.022 nM; the “IFNy [%+] Emax, CD8+ T Cells” value was found to be 68.2 %+; the “IFNy [%+] Emax, CD56hi NK Cells” value came to 92.8 %+.

B2: human IL12 mutein, hIL-12p40 E81L, F82A with hIL-12p35-8X His (ligand)
chain 1: IWELKKDVYVVELDWYPDAPGEMVVLTCDTPEEDGITWTLDQSSEVLGSGKTLTIQVKLAGDAGQYTCHKGGEVLSHSLLLLHKKEDGIWSTDILKDQKEPKNKTFLRCEAKNYSGRFTCWWLTTISTDLTFSVKSSRGSSDPQGVTCGAATLSAERVRGDNKEYEYSVECQEDSACPAAEESLPIEVMVDAVHKLKYENYTSSFFIRDIIKPDPPKNLQLKPLKNSRQVEVSWEYPDTWSTPHSYFSLTFCVQVQGKSKREKKDRVFTDKTSATVICRKNASISVRAQDRYYSSSWSEWASVPCS
chain 2: RNLPVATPDPGMFPCLHHSQNLLRAVSNMLQKARQTLEFYPCTSEEIDHEDITKDKTSTVEACLPLELTKNESCLNSRETSFITNGSCLASRKTSFMMALCLSSIYEDLKMYQVEFKTMNAKLLMDPKRQIFLDQNMLAVIDELMQALNFNSETVPQKSSLEEPDFYKTKIKLCILLHAFRIRAVTIDRVMSYLNASGSHHHHHHHH
Regarding B2, in test [1], the “IFNy [gMFI] EC50, CD8+ T Cells” value stood at 0.39 nM; the “IFNy [gMFI] EC50, CD56hi NK Cells” value is 0.47 nM; the “IFNy [gMFI] Emax, CD8+ T Cells” value came to 11500 gMFI; the “IFNy [gMFI] Emax, CD56hi NK Cells” value was 223000 gMFI. In test [2], the “IFNy [%+] EC50, CD8+ T Cells” value is 0.185 nM; the “IFNy [%+] EC50, CD56hi NK Cells” value came out at 0.003 nM; the “IFNy [%+] Emax, CD8+ T Cells” value turned out to be 68 %+; the “IFNy [%+] Emax, CD56hi NK Cells” value was 94.8 %+.

B3: human IL12 mutein, hIL-12p40 E81G, F82A with hIL-12p35-8X His (ligand)
chain 1: IWELKKDVYVVELDWYPDAPGEMVVLTCDTPEEDGITWTLDQSSEVLGSGKTLTIQVKGAGDAGQYTCHKGGEVLSHSLLLLHKKEDGIWSTDILKDQKEPKNKTFLRCEAKNYSGRFTCWWLTTISTDLTFSVKSSRGSSDPQGVTCGAATLSAERVRGDNKEYEYSVECQEDSACPAAEESLPIEVMVDAVHKLKYENYTSSFFIRDIIKPDPPKNLQLKPLKNSRQVEVSWEYPDTWSTPHSYFSLTFCVQVQGKSKREKKDRVFTDKTSATVICRKNASISVRAQDRYYSSSWSEWASVPCS
chain 2: RNLPVATPDPGMFPCLHHSQNLLRAVSNMLQKARQTLEFYPCTSEEIDHEDITKDKTSTVEACLPLELTKNESCLNSRETSFITNGSCLASRKTSFMMALCLSSIYEDLKMYQVEFKTMNAKLLMDPKRQIFLDQNMLAVIDELMQALNFNSETVPQKSSLEEPDFYKTKIKLCILLHAFRIRAVTIDRVMSYLNASGSHHHHHHHH
For the molecule B3, in test [1], the “IFNy [gMFI] EC50, CD8+ T Cells” value amounted to 0.14 nM; the “IFNy [gMFI] EC50, CD56hi NK Cells” value worked out at 0.29 nM; the “IFNy [gMFI] Emax, CD8+ T Cells” value was 10700 gMFI; the “IFNy [gMFI] Emax, CD56hi NK Cells” value was found to be 181000 gMFI. Besides, in test [2], the “IFNy [%+] EC50, CD8+ T Cells” value is 0.08 nM; the “IFNy [%+] EC50, CD56hi NK Cells” value stood at 0.01 nM; the “IFNy [%+] Emax, CD8+ T Cells” value came to 67.4 %+; the “IFNy [%+] Emax, CD56hi NK Cells” value turned out to be 93.8 %+.

B4: human IL12 mutein, hIL-12p40 E81V, F82A with hIL-12p35-8X His (ligand)
chain 1: IWELKKDVYVVELDWYPDAPGEMVVLTCDTPEEDGITWTLDQSSEVLGSGKTLTIQVKVAGDAGQYTCHKGGEVLSHSLLLLHKKEDGIWSTDILKDQKEPKNKTFLRCEAKNYSGRFTCWWLTTISTDLTFSVKSSRGSSDPQGVTCGAATLSAERVRGDNKEYEYSVECQEDSACPAAEESLPIEVMVDAVHKLKYENYTSSFFIRDIIKPDPPKNLQLKPLKNSRQVEVSWEYPDTWSTPHSYFSLTFCVQVQGKSKREKKDRVFTDKTSATVICRKNASISVRAQDRYYSSSWSEWASVPCS
chain 2: RNLPVATPDPGMFPCLHHSQNLLRAVSNMLQKARQTLEFYPCTSEEIDHEDITKDKTSTVEACLPLELTKNESCLNSRETSFITNGSCLASRKTSFMMALCLSSIYEDLKMYQVEFKTMNAKLLMDPKRQIFLDQNMLAVIDELMQALNFNSETVPQKSSLEEPDFYKTKIKLCILLHAFRIRAVTIDRVMSYLNASGSHHHHHHHH
Turning to B4, in test [1], the “IFNy [gMFI] EC50, CD8+ T Cells” value came to 0.38 nM; the “IFNy [gMFI] EC50, CD56hi NK Cells” value stood at 0.5 nM; the “IFNy [gMFI] Emax, CD8+ T Cells” value came to 10600 gMFI; the “IFNy [gMFI] Emax, CD56hi NK Cells” value worked out at 194000 gMFI. Moreover, in test [2], the “IFNy [%+] EC50, CD8+ T Cells” value was 0.226 nM; the “IFNy [%+] EC50, CD56hi NK Cells” value is 0.026 nM; the “IFNy [%+] Emax, CD8+ T Cells” value stood at 67.4 %+; the “IFNy [%+] Emax, CD56hi NK Cells” value was found to be 94.6 %+.

B5: human IL12 mutein, hIL-12p40 E81R, F82A with hIL-12p35-8X His (ligand)
chain 1: IWELKKDVYVVELDWYPDAPGEMVVLTCDTPEEDGITWTLDQSSEVLGSGKTLTIQVKRAGDAGQYTCHKGGEVLSHSLLLLHKKEDGIWSTDILKDQKEPKNKTFLRCEAKNYSGRFTCWWLTTISTDLTFSVKSSRGSSDPQGVTCGAATLSAERVRGDNKEYEYSVECQEDSACPAAEESLPIEVMVDAVHKLKYENYTSSFFIRDIIKPDPPKNLQLKPLKNSRQVEVSWEYPDTWSTPHSYFSLTFCVQVQGKSKREKKDRVFTDKTSATVICRKNASISVRAQDRYYSSSWSEWASVPCS
chain 2: RNLPVATPDPGMFPCLHHSQNLLRAVSNMLQKARQTLEFYPCTSEEIDHEDITKDKTSTVEACLPLELTKNESCLNSRETSFITNGSCLASRKTSFMMALCLSSIYEDLKMYQVEFKTMNAKLLMDPKRQIFLDQNMLAVIDELMQALNFNSETVPQKSSLEEPDFYKTKIKLCILLHAFRIRAVTIDRVMSYLNASGSHHHHHHHH
As to B5, in test [1], the “IFNy [gMFI] EC50, CD8+ T Cells” value is 0.35 nM; the “IFNy [gMFI] EC50, CD56hi NK Cells” value is 0.75 nM; the “IFNy [gMFI] Emax, CD8+ T Cells” value came to 16300 gMFI; the “IFNy [gMFI] Emax, CD56hi NK Cells” value worked out at 156000 gMFI. Also, in test [2], the “IFNy [%+] EC50, CD8+ T Cells” value is 0.178 nM; the “IFNy [%+] EC50, CD56hi NK Cells” value was determined as 0.036 nM; the “IFNy [%+] Emax, CD8+ T Cells” value was 81.6 %+; the “IFNy [%+] Emax, CD56hi NK Cells” value was determined as 94 %+.
